In paper PMC4963854 (2016):

Tests used:
Fluo-IIa = Fluo-IIa (Streptococcus pyogenes); test: fluorescence polarization
Fluo-Ia = Fluo-Ia (Streptococcus pyogenes); test: fluorescence polarization

B1: Epsilon antitoxin (protein)
chain: AVTYEKTFEIEIINELSASVYNRVLNYVLNHELNKNDSQLLEVNLLNQLKLAKRVNLFDYSLEELQAVHEYWRSMNRYSKQVLNKEKVA
- Kd (Fluo-IIa): 0.17 µM
- Kd (Fluo-Ia): 0.0745 µM
